Laboratory results as given in US6124262A, “Compositions and methods for reducing adhesiveness of defective red blood cells” (The Regents of the University of California, dated 2000).
Blank lines part the entries; values can stand above or below the molecule they belong to. Where no end group is shown, it is not given here. [ ]: non-standard residue; d: D form.

Assays:
[1] = system: P. falciparum-infected erythrocytes (rosetting); type: cell-based; conditions: FIG. 3B; read-out: IC50, competitive inhibition of rosetting
Protocol: (§1) The Gambian FCR-3 strain of P. falciparum was cultured according to the literature method [Trager, W. & J. Jensen (1976) Science 193:673-675]. Cultures were synchronized at the ring stage by sorbitol lysis of mature forms [Lambros, C. & J. P. Vanderberg (1980) J. Parasitology 65:418-20]. Knobless parasite cultures were produced from a knobby FCR-3 line and maintained as described previously [Crandall, I. E. et al. (1994) Cell Adhesion & Communication 2(6):503-510].
(§2) Cytoadherence assays were carried out as described previously [Udeinya et al. (1981), supra; Crandall et al. (1991), supra] except that BTS buffer (50 mM Bis Tris, 130 mM NaCl, pH 6.6) was substituted for BTC buffer (i.e. the Ca^+ was omitted from the cytoadherence assay buffer). Rosetting was measured as described previously [Crandall et al. (1994), supra].
(§3) In order to determine if the action of the antibody was due to the non-competitive removal of the sequence FSFCETNGLEYI [SEQ ID NO:44], the antibody's epitope, or whether it was the result of steric hindrance or induced conformational change of the protein associated with the antibody's binding, the effect of adding increased amounts of the peptide FSFCETNGLE [SEQ ID NO:26] to rosetting and cytoadherence assays was determined. […] FIG. 3A illustrates the results of adding the indicated peptides to the incubation medium of a cytoadherence assay. […]

[2] = system: P. falciparum-infected erythrocytes; type: cell-based; conditions: FIG. 3A; read-out: IC50, competitive inhibition of cytoadherence
Protocol: as §1, §2, §3

CD36 = CD36 (Homo sapiens (Human), UniProt P16671); assay: cell-based or functional assay
human band 3 protein = human band 3 protein (human, UniProt P02730); assay: cell-based or functional assay

Molecule: FSFCETNGLE [Peptide 2f, FSFCETNGLE]
IC50 [1]: 3000 nM
IC50 [2]: 4 µM

50% inhibition of sickle cell binding to HUVEC (CD36): 4 µg/mL
Molecule: G[dH][dP][dL][dQ][dK][dT][dY] [D-isomer of peptide 3d]

50% inhibition of sickle cell binding to HUVEC (CD36): 4 µg/mL
Molecule: GHPLQKTY [peptide 3d, GHPLQKTY]

50% inhibition of sickle cell binding to HUVEC (human band 3 protein): 4 µg/mL
IC50 of inhibition of cytoadherence of P. falciparum-infected erythrocytes (human band 3 protein): 4 µM
IC50 of inhibition of rosetting of P. falciparum-infected erythrocytes (human band 3 protein): 3 µM
Molecule: FSFCETNGLE [peptide 2f, FSFCETNGLE]
